Results on two proteins are retold here after article PMC10785194.

Holding throughout (conditions): control: untreated
One data set can be described thus: immunoblot, C4-2B. A general note: Immunoblotting shows a protein as a band on a membrane.
Data set [1] in a line: CHX chase, AR protein stability by immunoblot.
Data set [2] in a line: immunofluorescence, nuclear AR, C4-2B.

B1: androgen receptor (AR): OSMI-1 (protein)
parent chain: MEVQLGLGRVYPRPPSKTYRGAFQNLFQSVREVIQNPGPRHPEAASAAPPGASLLLLQQQQQQQQQQQQQQQQQQQQQQQETSPRQQQQQQGEDGSPQAHRRGPTGYLVLDEEQQPSQPQSALECHPERGCVPEPGAAVAASKGLPQQLPAPPDEDDSAAPSTLSLLGPTFPGLSSCSADLKDILSEASTMQLLQQQQQEAVSEGSSSGRAREASGAPTSSKDNYLGGTSTISDNAKELCKAVSVSMGLGVEALEHLSPGEQLRGDCMYAPLLGVPPAVRPTPCAPLAECKGSLLDDSAGKSTEDTAEYSPFKGGYTKGLEGESLGCSGSAAAGSSGTLELPSTLSLYKSGALDEAAAYQSRDYYNFPLALAGPPPPPPPPHPHARIKLENPLDYGSAWAAAAAQCRYGDLASLHGAGAAGPGSGSPSAAASSSWHTLFTAEEGQLYGPCGGGGGGGGGGGGGGGGGGGGGGGEAGAVAPYGYTRPPQGLAGQESDFTAPDVWYPGGMVSRVPYPSPTCVKSEMGPWMDSYSGPYGDMRLETARDHVLPIDYYFPPQKTCLICGDEASGCHYGALTCGSCKVFFKRAAEGKQKYLCASRNDCTIDKFRRKNCPSCRLRKCYEAGMTLGARKLKKLGNLKLQEEGEASSTTSPTEETTQKLTVSHIEGYECQPIFLNVLEAIEPGVVCAGHDNNQPDSFAALLSSLNELGERQLVHVVKWAKALPGFRNLHVDDQMAVIQYSWMGLMVFAMGWRSFTNVNSRMLYFAPDLVFNEYRMHKSRMYSQCVRMRHLSQEFGWLQITPQEFLCMKALLLFSIIPVDGLKNQKFFDELRMNYIKELDRIIACKRKNPTSCSRRFYQLTKLLDSVQPIARELHQFTFDLLIKSHMVSVDFPEMMAEIISVQVPKILSGKVKPIYFHTQ
As for B1, the “other: AR S81 phosphorylation” value in “immunoblot, C4-2B” (glycan lost) is “increases”. Further, the degradation_or_half_life result in data set [1] (glycan lost) was “increases”. In addition, in data set [2] (glycan lost), the localisation_or_trafficking entry is recorded as “increases”.

B2: androgen receptor (AR): Thiamet G (protein)
parent chain: MEVQLGLGRVYPRPPSKTYRGAFQNLFQSVREVIQNPGPRHPEAASAAPPGASLLLLQQQQQQQQQQQQQQQQQQQQQQQETSPRQQQQQQGEDGSPQAHRRGPTGYLVLDEEQQPSQPQSALECHPERGCVPEPGAAVAASKGLPQQLPAPPDEDDSAAPSTLSLLGPTFPGLSSCSADLKDILSEASTMQLLQQQQQEAVSEGSSSGRAREASGAPTSSKDNYLGGTSTISDNAKELCKAVSVSMGLGVEALEHLSPGEQLRGDCMYAPLLGVPPAVRPTPCAPLAECKGSLLDDSAGKSTEDTAEYSPFKGGYTKGLEGESLGCSGSAAAGSSGTLELPSTLSLYKSGALDEAAAYQSRDYYNFPLALAGPPPPPPPPHPHARIKLENPLDYGSAWAAAAAQCRYGDLASLHGAGAAGPGSGSPSAAASSSWHTLFTAEEGQLYGPCGGGGGGGGGGGGGGGGGGGGGGGEAGAVAPYGYTRPPQGLAGQESDFTAPDVWYPGGMVSRVPYPSPTCVKSEMGPWMDSYSGPYGDMRLETARDHVLPIDYYFPPQKTCLICGDEASGCHYGALTCGSCKVFFKRAAEGKQKYLCASRNDCTIDKFRRKNCPSCRLRKCYEAGMTLGARKLKKLGNLKLQEEGEASSTTSPTEETTQKLTVSHIEGYECQPIFLNVLEAIEPGVVCAGHDNNQPDSFAALLSSLNELGERQLVHVVKWAKALPGFRNLHVDDQMAVIQYSWMGLMVFAMGWRSFTNVNSRMLYFAPDLVFNEYRMHKSRMYSQCVRMRHLSQEFGWLQITPQEFLCMKALLLFSIIPVDGLKNQKFFDELRMNYIKELDRIIACKRKNPTSCSRRFYQLTKLLDSVQPIARELHQFTFDLLIKSHMVSVDFPEMMAEIISVQVPKILSGKVKPIYFHTQ
Regarding B2, in “immunoblot, C4-2B” (glycan gained), the “other: AR S81 phosphorylation” value was “decreases”. Further, the degradation_or_half_life entry in data set [1] (glycan gained) is “decreases”. The localisation_or_trafficking result in data set [2] (glycan gained) is given as “decreases”.
